# Experimental data taken from patent US20120207760A1.
# “And” between values parts separate entries of the source, which are not always exact repeats. Equal entries are not always repeated.
# Molecular target: M2 protein of influenza A/Hong Kong/483/97 (H5N1) (Influenza A virus A/Hong Kong/483/97)
# TCN-032 (8I10) (antibody), sequence (VH): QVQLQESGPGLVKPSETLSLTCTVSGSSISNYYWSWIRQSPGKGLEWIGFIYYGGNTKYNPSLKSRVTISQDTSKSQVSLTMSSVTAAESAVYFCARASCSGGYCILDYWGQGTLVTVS
# TCN-032 (8I10) (antibody), sequence (VL): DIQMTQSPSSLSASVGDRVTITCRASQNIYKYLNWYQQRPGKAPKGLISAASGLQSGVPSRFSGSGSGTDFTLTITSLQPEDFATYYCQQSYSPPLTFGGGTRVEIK
substance,measurement,value
TCN-032 (8I10) (antibody),FACS M2-HK MFI,754 MFI and 1080 MFI
